In assay [1] the target is full-length NaVSp1 (from His-MBP-NaVSp1), reconstituted in lipid nanodiscs or amphipol A8-35 (Silicibacter pomeroyi). The experiment in a line: SEC-MALS. On the technique in general: In gel filtration, larger molecules generally elute earlier.
The target in assay [2] is NaVAb1p (Alcanivorax borkumensis NaVAb1 'pore only' protein), crystallised from bicelles (Alcanivorax borkumensis). The experiment in a line: crystal structure.
Assay [3] addresses full-length NaVAe1 with C-terminal GFP (Alkalilimnicola ehrlichii, entry strain …, UniProt Q0ABW0). The experiment in a line: fluorescence-detection size-exclusion chromatography.
The target in assay [4] is full-length NaVSp1 with C-terminal GFP (Silicibacter (Ruegeria) pomeroyi, entry …, UniProt F7IVA8). The description is as above.
Assay [5] deals with T1, full-length NaVSp1 (from His-MBP-NaVSp1), reconstituted in lipid nanodiscs or amphipol A8-35 (Silicibacter pomeroyi).
T1 chain: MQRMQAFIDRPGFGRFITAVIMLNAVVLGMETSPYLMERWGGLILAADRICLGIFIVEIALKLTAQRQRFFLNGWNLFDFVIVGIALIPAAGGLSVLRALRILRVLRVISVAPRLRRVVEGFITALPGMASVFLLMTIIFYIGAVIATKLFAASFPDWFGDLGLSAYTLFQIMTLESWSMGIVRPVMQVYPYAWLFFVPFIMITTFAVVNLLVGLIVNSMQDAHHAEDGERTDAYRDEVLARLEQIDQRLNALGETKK
The experiment in a line: SEC-MALS.

Several values for one entry are separate records, joined by “and”; a condition that tells them apart may be missing. Equal values may be shown once. Read-outs that look alike come from different tables or passages of the source.

In general, stoichiometry N refers to a count of units in the complex or per binding partner.

Regarding “full-length NaVSp1 (from His-MBP-NaVSp1), reconstituted in lipid nanodiscs or amphipol A8-35 (natural protein)”, in assay [1], the stoichiometry N was 4 and 8. Molecule “NaVAb1p (Alcanivorax borkumensis NaVAb1 'pore only' protein), crystallised from bicelles (domain or fragment)” had a stoichiometry N in assay [2] of 4.

B1: sFab SAT09 (synthetic Fab from phage display, selected on NaVAe1/Sp1CTD in nanodiscs) (Fab, V domains shown)
VH: EVQLVESGGGLVQPGGSLRLSCAASGFNFSSSSIHWVRQAPGKGLEWVASISSSSGSTSYADSVKGRFTISADTSKNTAYLQMNSLRAEDTAVYYCARTYGWYYSWWWAFDYWGQGTLVTVSS
VL: DIQMTQSPSSLSASVGDRVTITCRASQSVSSAVAWYQQKPGKAPKLLIYSASSLYSGVPSRFSGSRSGTDFTLTISSLQPEDFATYYCQQGDPRLVTFGQGTKVEIK
With B1, the binding result in assay [3] and in assay [4] was “binds” throughout. Besides, the “stoichiometry N” value in assay [5] was 2 SAT09 sFabs to one channel.

Source of the values: publication PMC9809158 (Nature structural & molecular biology, 2022).
